According to PMC7954794 (2021):

B1: S. cerevisiae Abp1 (full length; SH3 domain 535-592 mutated) / Hua2 (parent complex)
chain 1: MALEPIDYTTHSREIDAEYLKIVRGSDPDTTWLIISPNAKKEYEPESTGSSFHDFLQLFDETKVQYGLARVSPPGSDVEKIIIIGWCPDSAPLKTRASFAANFAAVANNLFKGYHVQVTARDEDDLDENELLMKISNAAGARYSIQTSSKQQGKASTPPVKKSFTPSKSPAPVSKKEPVKTPSPAPAAKISSRVNDNNDDDDWNEPELKERDFDQAPLKPNQSSYKPIGKIDLQKVIAEEKAKEDPRLVQKPTAAGSKIDPSSDIANLKNESKLKRDSEFNSFLGTTKPPSMTESSLKNDDDKVIKGFRNEKSPAQLWAERKAKQNSGNAETKAEAPKPEVPEDEPEGEPDVKDLKSKFEGLAASEKEEEEMENKFAPPPKKSEPTIISPKPFSKPQEPVKAEEAEQPKTDYKKIGNPLPGMHIEADNEEEPEENDDDWDDDEDEAAQPPLPSRNVASGAPVQKEEPEQEEIAPSLPSRNSIPAPKQEEAPEQAPEEEIEEEAEEAAPQLPSRSSAAPPPPPRRATPEKKPKENPWATAEYDYDAAEDNELTFVENDKIINIEFVDDDWWLGELEKDGSKGLFPSNYVSLGN
chain 2: MQQTKFGKMYLDHDSVVEYSEDEIVEADRITLGYKKRLSMIENQMRHLLEDFSLDVQQIEPILADLQKYYDAFLQLLQKRNKSLQCKRSTHQPVPSPMNSQTSTNAKVNLSGKLMKFQLNSVQKFDEENILRILQNKIEFEHYFQIDKGKKQKVLLLAVYQCLNGPTRLHKVLNIEGIIHNNSIRTILGKQVSSSKWTVFLYDVKLVLLAHRQDVPNLETSKMIVRYGDLFPCALYFKDHTAY

Variants of: B1
Experiment: DHFR protein-fragment complementation in yeast (Abp1-DHFR F[1,2] x partner-DHFR F[3]), deep mutational scanning, second methotrexate selection vs reference; S. cerevisiae, DHFR-PCA selection in liquid with methotrexate at 30 C, two 72 h selections (the score uses the second); reference = the pre-selection culture

Variant	screen value
chain 1 MALEPIDYTTHSREIDAEYLKIVRGSDPDTTWLIISPNAKKEYEPESTGSSFHDFLQLFDETKVQYGLARVSPPGSDVEKIIIIGWCPDSAPLKTRASFAANFAAVANNLFKGYHVQVTARDEDDLDENELLMKISNAAGARYSIQTSSKQQGKASTPPVKKSFTPSKSPAPVSKKEPVKTPSPAPAAKISSRVNDNNDDDDWNEPELKERDFDQAPLKPNQSSYKPIGKIDLQKVIAEEKAKEDPRLVQKPTAAGSKIDPSSDIANLKNESKLKRDSEFNSFLGTTKPPSMTESSLKNDDDKVIKGFRNEKSPAQLWAERKAKQNSGNAETKAEAPKPEVPEDEPEGEPDVKDLKSKFEGLAASEKEEEEMENKFAPPPKKSEPTIISPKPFSKPQEPVKAEEAEQPKTDYKKIGNPLPGMHIEADNEEEPEENDDDWDDDEDEAAQPPLPSRNVASGAPVQKEEPEQEEIAPSLPSRNSIPAPKQEEAPEQAPEEEIEEEAEEAAPQLPSRSSAAPPPPPRRATPEKKPKENPWATAEYDYDAAEDNELTFVENDKIINIEFVDDDWWLGELEKDSSKGLFPSNYVSLGN [chain 1 G578S]	-0.671 DMS score: mean over two replicates of log2(f_test/f_ref + 0.5)/ln 2, minus the synonymous-codon median (not a log2 …
chain 1 MALEPIDYTTHSREIDAEYLKIVRGSDPDTTWLIISPNAKKEYEPESTGSSFHDFLQLFDETKVQYGLARVSPPGSDVEKIIIIGWCPDSAPLKTRASFAANFAAVANNLFKGYHVQVTARDEDDLDENELLMKISNAAGARYSIQTSSKQQGKASTPPVKKSFTPSKSPAPVSKKEPVKTPSPAPAAKISSRVNDNNDDDDWNEPELKERDFDQAPLKPNQSSYKPIGKIDLQKVIAEEKAKEDPRLVQKPTAAGSKIDPSSDIANLKNESKLKRDSEFNSFLGTTKPPSMTESSLKNDDDKVIKGFRNEKSPAQLWAERKAKQNSGNAETKAEAPKPEVPEDEPEGEPDVKDLKSKFEGLAASEKEEEEMENKFAPPPKKSEPTIISPKPFSKPQEPVKAEEAEQPKTDYKKIGNPLPGMHIEADNEEEPEENDDDWDDDEDEAAQPPLPSRNVASGAPVQKEEPEQEEIAPSLPSRNSIPAPKQEEAPEQAPEEEIEEEAEEAAPQLPSRSSAAPPPPPRRATPEKKPKENPWATAEYDYDAAEDNELTFVYNDKIINIEFVDDDWWLGELEKDGSKGLFPSNYVSLGN [chain 1 E555Y]	-0.189 DMS score: mean over two replicates of log2(f_test/f_ref + 0.5)/ln 2, minus the synonymous-codon median (not a log2 …

More lines, now with the values ahead:

screen value	Variant
0.356 DMS score: mean over two replicates of log2(f_test/f_ref + 0.5)/ln 2, minus the synonymous-codon median (not a log2 …	chain 1 MALEPIDYTTHSREIDAEYLKIVRGSDPDTTWLIISPNAKKEYEPESTGSSFHDFLQLFDETKVQYGLARVSPPGSDVEKIIIIGWCPDSAPLKTRASFAANFAAVANNLFKGYHVQVTARDEDDLDENELLMKISNAAGARYSIQTSSKQQGKASTPPVKKSFTPSKSPAPVSKKEPVKTPSPAPAAKISSRVNDNNDDDDWNEPELKERDFDQAPLKPNQSSYKPIGKIDLQKVIAEEKAKEDPRLVQKPTAAGSKIDPSSDIANLKNESKLKRDSEFNSFLGTTKPPSMTESSLKNDDDKVIKGFRNEKSPAQLWAERKAKQNSGNAETKAEAPKPEVPEDEPEGEPDVKDLKSKFEGLAASEKEEEEMENKFAPPPKKSEPTIISPKPFSKPQEPVKAEEAEQPKTDYKKIGNPLPGMHIEADNEEEPEENDDDWDDDEDEAAQPPLPSRNVASGAPVQKEEPEQEEIAPSLPSRNSIPAPKQEEAPEQAPEEEIEEEAEEAAPQLPSRSSAAPPPPPRRATPEKKPKENPWATAEYDYDAAEDIELTFVENDKIINIEFVDDDWWLGELEKDGSKGLFPSNYVSLGN [chain 1 N549I]
1.83 DMS score: mean over two replicates of log2(f_test/f_ref + 0.5)/ln 2, minus the synonymous-codon median (not a log2 …	chain 1 MALEPIDYTTHSREIDAEYLKIVRGSDPDTTWLIISPNAKKEYEPESTGSSFHDFLQLFDETKVQYGLARVSPPGSDVEKIIIIGWCPDSAPLKTRASFAANFAAVANNLFKGYHVQVTARDEDDLDENELLMKISNAAGARYSIQTSSKQQGKASTPPVKKSFTPSKSPAPVSKKEPVKTPSPAPAAKISSRVNDNNDDDDWNEPELKERDFDQAPLKPNQSSYKPIGKIDLQKVIAEEKAKEDPRLVQKPTAAGSKIDPSSDIANLKNESKLKRDSEFNSFLGTTKPPSMTESSLKNDDDKVIKGFRNEKSPAQLWAERKAKQNSGNAETKAEAPKPEVPEDEPEGEPDVKDLKSKFEGLAASEKEEEEMENKFAPPPKKSEPTIISPKPFSKPQEPVKAEEAEQPKTDYKKIGNPLPGMHIEADNEEEPEENDDDWDDDEDEAAQPPLPSRNVASGAPVQKEEPEQEEIAPSLPSRNSIPAPKQEEAPEQAPEEEIEEEAEEAAPQLPSRSSAAPPPPPRRATPEKKPKENPWATAEYDYDAAEDNELTFVENDKIINIEFVDDDWWLGELEKDGSKGLFPSTYVSLGN [chain 1 N586T]
0.723 DMS score: mean over two replicates of log2(f_test/f_ref + 0.5)/ln 2, minus the synonymous-codon median (not a log2 …	chain 1 MALEPIDYTTHSREIDAEYLKIVRGSDPDTTWLIISPNAKKEYEPESTGSSFHDFLQLFDETKVQYGLARVSPPGSDVEKIIIIGWCPDSAPLKTRASFAANFAAVANNLFKGYHVQVTARDEDDLDENELLMKISNAAGARYSIQTSSKQQGKASTPPVKKSFTPSKSPAPVSKKEPVKTPSPAPAAKISSRVNDNNDDDDWNEPELKERDFDQAPLKPNQSSYKPIGKIDLQKVIAEEKAKEDPRLVQKPTAAGSKIDPSSDIANLKNESKLKRDSEFNSFLGTTKPPSMTESSLKNDDDKVIKGFRNEKSPAQLWAERKAKQNSGNAETKAEAPKPEVPEDEPEGEPDVKDLKSKFEGLAASEKEEEEMENKFAPPPKKSEPTIISPKPFSKPQEPVKAEEAEQPKTDYKKIGNPLPGMHIEADNEEEPEENDDDWDDDEDEAAQPPLPSRNVASGAPVQKEEPEQEEIAPSLPSRNSIPAPKQEEAPEQAPEEEIEEEAEEAAPQLPSRSSAAPPPPPRRATPEKKPKENPWATAEYDYDAAEDNELTFVENDKIINIEFVDDDWWLGELEKDGSKGLFPSNYVLLGN [chain 1 S589L]
